Patent US20230357323A1, “HUMAN IL23 RECEPTOR BINDING POLYPEPTIDES” (University of Washington, priority 2020, published 2023)
Like-named read-outs stand apart in the source and are kept apart here.

Assays:
[1] = biological target: T1, human IL-23R (hIL-23R) (Homo sapiens, UniProt Q5VWK5); assay: Biolayer interferometry (BLI) binding to hIL-23R; details: biolayer interferometry binding titrations; read-out: affinity (KD) for hIL-23R
T1 construct: his tag (C); purchased
T1 sequence (Q5VWK5 24-629): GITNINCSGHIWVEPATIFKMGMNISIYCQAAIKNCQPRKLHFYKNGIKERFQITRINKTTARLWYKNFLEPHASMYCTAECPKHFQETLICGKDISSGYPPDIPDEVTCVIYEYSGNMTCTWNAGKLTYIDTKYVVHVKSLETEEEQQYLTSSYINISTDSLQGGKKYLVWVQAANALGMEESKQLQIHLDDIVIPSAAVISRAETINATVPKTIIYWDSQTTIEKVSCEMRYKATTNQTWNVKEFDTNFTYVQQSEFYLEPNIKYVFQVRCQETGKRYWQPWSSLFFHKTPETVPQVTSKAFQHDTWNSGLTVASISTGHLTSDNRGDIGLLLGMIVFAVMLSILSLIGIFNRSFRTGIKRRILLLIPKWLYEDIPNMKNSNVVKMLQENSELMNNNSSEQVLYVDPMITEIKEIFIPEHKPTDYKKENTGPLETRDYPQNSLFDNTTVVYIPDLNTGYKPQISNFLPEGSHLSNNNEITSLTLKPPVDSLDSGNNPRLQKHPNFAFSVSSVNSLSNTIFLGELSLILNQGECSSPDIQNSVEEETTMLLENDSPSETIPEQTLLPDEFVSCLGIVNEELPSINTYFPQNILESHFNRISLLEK
From the text: Two designs, 23R_A (SEQ ID NO:10) and 23R_B (SEQ ID NO:110), were highly enriched in the final selection pool and were chosen for further biochemical characterization. Both designs are 3-helix bundles (54 and 53 residues, respectively) which incorporate the native Trp hotspot at the N-terminal end of a helix such that IL-23R residue D118 forms a helix-capping hydrogen bond with the Trp hotspot's free backbone amine, similar to the αD helix of p19 (FIG. 1D). In both designs, this central binding helix has a larger interaction surface with hIL-23R, mediated by additional de novo hotspots, than p19. […]
Variants were first screened for relative binding to hIL-23R with biolayer interferometry (BLI). hIL-23R was immobilized on the BLI sensor tips and binding to each variant in solution at a constant concentration (50 nM) was measured to qualitatively determine relative performance of the variants. For the best-performing variants, binding constants (KD, including kon, and koff) were quantitatively determined with BLI titration experiments in triplicate. […]
Qualitative and quantitative assessment of binding affinity was performed using biolayer interferometry (ForteBio Octet™ […] and associated software for analysis). […] Kinetic constants were determined from the mathematical fit of a 1:1 binding model.

[2] = Circular dichroism temperature and chemical denaturant (GuHCl) melts; type: physicochemical
Procedure: FIG. 3. Stability analysis of B08, a representative affinity-matured combinatorial variant and BO4dslf02, a representative disulfide-stabilized variant. (A) Designed proteins were incubated in simulated gastric or intestinal fluids and degradation was assessed by SDS PAGE at 5, 15, 30 and 60 minutes, 4 and 24 hours. (B) Resistance to temperature and chemical denaturant (GuHCl) was assessed by circular dichroism, measuring the helical signature (signal at 222 nm) in the conditions shown normalized to baseline (25° C. and 0 M GuHCl).
CD spectra were recorded with a J-1500 Circular Dichroism Spectrometer (JASCO). Proteins were assayed at […] in DPBS free of MgCl2 and […]. (Life Technologies) with guanidinium hydrochloride from 0 to 6 M, and data were collected at 25° C. For temperature melts, proteins at […] were heated from 25° C. to 95° C. over approximately 1.5 hours.

B1: … (protein)
chain 1: MESEKYLRELVKKYYEGKLSVQEAVEEVRKYARKKGLEAWMLTWMFMELVKRYI
chain 2: MESEKYLRELVKKYYEGKLSVQEAVEEVRKYARKKGLEAWMLTWMFMELVKRYI
notes: computational design, 3-helix bundle, 54 residues
[1]
  Kd: 26 ± 1 nM
[2]; high temperature and high concentrations of chemical denaturant
  stability by circular dichroism (CD): high stability

B2: NLWQIFYQLSTILKRTGDPTAKKLLKALAEALKKGDEKALKELAKKATKYIRS (protein)
chain 1: NLWQIFYQLSTILKRTGDPTAKKLLKALAEALKKGDEKALKELAKKATKYIRS
chain 2: NLWQIFYQLSTILKRTGDPTAKKLLKALAEALKKGDEKALKELAKKATKYIRS
notes: computational design, 3-helix bundle, 53 residues
[1]
  Kd: 70 ± 50 nM
[2]
  stability by circular dichroism (CD): high stability
